Laboratory results published in the supplement of paper PMC9170038.

Columns and labels:
[1] = tested on: MS2 coat protein; assay: apparent KD of MS2 coat protein, switch ON state; designed switch direction (-1 OFF switch, 1 ON switch): -1; higher = weaker reporter binding; conditions: FMN input: 0 or 200 uM; Eterna round: R93 (includes R88 designs)
Summary of the method: (§1)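 Designed RNA switches were made by on-chip transcription from Illumina sequencing clusters and then titrated with SNAP-549-labelled MS2 coat protein. Twofold steps ran from 0.7 or 1.5 nM to 3 µM, each lasting 0.8–1.5 h early and 10–20 min late, in 100 mM Tris-HCl pH 7.5, 80 mM KCl, 4 mM MgCl2, without or with constant ligand. Apparent KD is the per-design median of normalised cluster binding-curve fits.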

[2] = tested on: MS2 coat protein; assay: apparent KD of MS2 coat protein, switch OFF state (with FMN for OFF switches, without FMN for ON switches); designed switch direction (-1 OFF switch, 1 ON switch): -1; higher = weaker reporter binding; conditions: FMN input: 0 or 200 uM; Eterna round: R93 (includes R88 designs)
Summary of the method: as §1

Sequence	apparent KD of MS2 coat protein [1] [nM]	apparent KD of MS2 coat protein [2] [nM]
AAAAAGGUAGGAUAUACGAAAAAAAAGGGUAAAAAAUAAAAACAUGAGGAUCACCCAUGUAGAAGGACCAAAAA [Mat - Exclusion 2 - Tesla mod - D41]	30.5	36.7
AAAAAGGUAGGAUAUACGAAAAAAAAGGGUAAAAUAAAUAAACAUGAGGAUCACCCAUGUAGAAGGACCAAAAA [Mat - Exclusion 2 - Tesla mod - D38]	23.5	161
AAAAAGGUAGGAUAUACGAGGAGAAAUAAUAAAUAAAUAAAACAUGAGGAUCACCCAUGUAGAAGGACCAAAAA [Ex 2 sub 2]	27.6	26.9
AAAAAGUCAGGAUAUACAGAAAAAAAAACGAAAAAAAAUCUGUAGAAGGGACAUGAGGAUCACCCAUGUAAAAA [Ex 4 May 12]	47.6	33.6
AAAAAGUCAGGAUAUACAUGAGGAUCACCCAUGUGAAAGAACGAAAAACGAAAAGCAAGUAGAAGGGACAAAAA [Ruby 78]	13.1	14
AAAAAGUCAGGAUAUAUGCGAAAAAUAAAAAAAAUAAAAACAUAGAAGGGACAUGAGGAUCACCCAUGUUAAAA [Ex 4 May 17]	44.7	29.3
AAAAAGUCAGGAUAUGUACAAAAUAAAAUAAAAAUAAAAGUACAGAAGGGACAUGAGGAUCACCCAUGUAAAAA [Ex 4 May 11]	38.6	36.6
AAAAAGUGAGGAUAUACAUGAGAAAAAAAAAUGUAAAAAAAACAUGAGGAUCACCCAUGUAGAAGGCACAAAAA [Ecxl-II]	40.8	83.5
AAAAAGUGAGGAUAUACAUGAGGAUCACCCAUGUAAUAAAAAAAAAGGGUGGAAGAAAGUAGAAGGCACCAAAA [Ex 3 May 48]	48.2	142
AAAAAGUGAGGAUAUACAUGAGGAUCACCCAUGUGUAUAAAAAAUUACACGAAAGAAUGUAGAAGGCACUAAAA [JL Mayanne Mod 3]	18.2	42.8
AAAAAGUGAGGAUAUACAUGAGGAUCACCCAUGUUAAAAAAAAAAAAAUAUAAAAAUAGUAGAAGGCACAAAAA [Default title]	48.8	41.3
AAAAAGUGAGGAUAUACAUGAGGAUCACCCAUGUUAAGGUAAUAUAUAUAUAUAUAUAGUAGAAGGCACAAAAA [Default title]	32.4	31.5
AAAAAGUGAGGAUAUACGGUGUGGAGUAGACACAACCAGGCGUAGAAGGCACAUGAGGAUCACCCAUGUCCAAA [EX4 Malc#15]	25.9	29.1
AAAAAGUGAGGAUAUGGUAAAAAAAAAAAAAAAAAGCACCUCCAGAAGGCACAUGAGGAUCACCCAUGUCGAAA [Jolly's Folly 6 - Jieux - Exclusion 4]	24.4	31.3
AAAAAGUGAGGAUAUGUCAAAAGUCACAAAAGUGACAAAAGACAGAAGGCACAUGAGGAUCACCCAUGUGAGGG [Mod of Eli - Late G + early G segment 4]	110	103
AAAAAGUGAGGAUAUGUCAAAAGUCACAAAAGUGACAAAAGACAGAAGGCACAUGAGGAUCACCCAUGUGGAAA [Mod of Eli - Late G + early G segment 2]	32.1	28.6
AAAAAGUGAGGAUAUGUCAAAAGUCACAAAAGUGACAAAAGACAGAAGGCACAUGAGGAUCACCCAUGUGGGAA [Mod of Eli - Late G + early G segment 1]	56.1	121
AAAAAGUGAGGAUAUUCGGAUAGGAAAACGAAAACCUAUCCGAAGAAGGCACAUGAGGAUCACCCAUGUGGAAA [67% Ecls-II - Early G + late G segment 2]	22.6	27.6
AAAAAUGGAGGAUAUACAUGAGGAUCACCCAUGUGUAACUAUACUAAGCACUCCUCACGUAGAAGGCCAAAAAA [Gilly Gone Silly 13 - Jieux - Exclusion 3]	55.3	113
AAAACACAUGAGGAUCACCCAUGUGAGGAUAUGAACGAAAAUAAAUAAAAAUAAAAGUUCAGAAGGCACAAAAA [66%, Wbt, 11]	24.2	36.1
AAAACACAUGAGGAUCACCCAUGUGAGGAUAUGCUAUGGAAAAUAAAAAUAAAACAUAGCAGAAGGCACAAAAA [Denovo 12]	20.3	32.3
AAAACACAUGAGGAUCACCCAUGUGAGGAUAUGCUAUGGAAAUAAAAAAUAAAACAUAGCAGAAGGCACAAGGA [Mat - Exclusion 1 - Eli mod - D45]	31.1	49.1
AAAACGGUAGGAUAUACGAUUUGGAACUAAACCGAGGAACCACAUGAGGAUCACCCAUGUAGAAGGGCCAAAAA [Mat - Exclusion 2 - JL mod - D81]	18.4	14.7
AAAACGGUAGGAUAUACGAUUUGGAACUAGACCGAGGAACCACAUGAGGAUCACCCAUGUAGAAGGGCCAAAAA [EX2 Malc#17]	15.6	10.7
AAAAGCUCAGGAUAUACGGUCUGUUGUUGAGAAAUAAAAAAACAUGAGGAUCACCCAUGUAGAAGGGAGCGAAA [Exclusion2-cac3]	44.4	111
AAAAGGUCAGGAUAUACAAAAAAAAAAAAAAAAAAAAAAAAGUAGAAGGGACAUGAGGAUCACCCAUGUGAAAA [Exclusion 4 - Omei 2]	64	40.3
AAAAGUCGAGGAUAUGCAAAAUGAUUGCGAAAGCAAUCAAAACAUGAGGAUCACCCAUGUAGAAGGCGACAAAA [Fiskers Exclusion 2 D3]	19.6	11.1
AAAAGUUCAGGAUAUACAUGAGGAUCACCCAUGUAGAAAGGAAGUGUAAAAAAAAAGUGUAGAAGGGAGCAUGA [MS2 Riboswitches On Chip Exclusion 3 wbt2]	22.2	21.8
AAAAUACAUGAGGAUCACCCAUGUCAGGAUAUUCCUGCAGCCUUGAAUAAGGGCUGGUGAAGAAGGGACGGUGA [Ancele]	33.4	84.6
AAAAUACAUGAGGAUCACCCAUGUGAGGAUAUCUUAAAGGGAAUAAAAUAACUCAAAAAGAGAAGGCACAAAAA [Ex 1 May 29]	35.8	44
